Laboratory results taken from the Immune Epitope Database (IEDB).

Columns and labels:
[1] = target: HLA-A*26:01; assay: IEDB peptide-MHC binding, purified MHC/direct/fluorescence; filed as Kd, often an IC50 or EC50 that approximates it; ≥ and ≤ were set here for values at or beyond the usual limits of such assays
[2] = target: HLA-A*03:01; assay: as above
[3] = target: HLA-A*02:12; assay: as above
[4] = target: HLA-B*15:17; assay: as above
[5] = target: HLA-A*02:01; assay: as above
[6] = target: HLA-B*18:01; assay: as above
[7] = target: HLA-A*02:19; assay: as above
[8] = target: HLA-A*29:02; assay: as above
[9] = target: HLA-B*39:01; assay: as above
[10] = target: HLA-B*15:01; assay: as above
[11] = target: HLA-B*46:01; assay: as above
[12] = target: HLA-A*02:06; assay: as above; settings: source organism: Vibrio vulnificus YJ016
[13] = target: HLA-A*24:03; assay: as above
[14] = target: HLA-B*27:03; assay: as above
[15] = target: HLA-B*57:01; assay: as above
[16] = target: HLA-B*51:01; assay: as above
[17] = target: HLA-A*01:01; assay: IEDB peptide-MHC binding, purified MHC/competitive/fluorescence; filed as Kd, often an IC50 or EC50 that approximates it; ≥ and ≤ were set here for values at or beyond the usual limits of such assays
[18] = target: HLA-A*11:01; assay: as above
[19] = target: HLA-B*27:05; assay: as above
[20] = target: HLA-B*58:01; assay: as above
[21] = target: HLA-B*07:02; assay: as above; settings: source organism: Vibrio vulnificus YJ016
[22] = target: HLA-A*30:02; assay: as above
[23] = target: HLA-B*14:02; assay: as above
[24] = target: HLA-A*23:01; assay: as above; settings: source organism: Vibrio vulnificus YJ016
[25] = target: HLA-A*30:01; assay: as above; settings: source organism: Vibrio vulnificus YJ016
[26] = target: HLA-B*08:01; assay: as above
[27] = target: HLA-B*53:01; assay: as above
[28] = target: HLA-A*66:01; assay: as above
[29] = target: HLA-B*40:01; assay: as above
[30] = target: HLA-B*44:02; assay: as above
[31] = target: HLA-A*02:16; assay: IEDB peptide-MHC binding, purified MHC/direct/fluorescence; filed as Kd, often an IC50 or EC50 that approximates it; ≥ and ≤ were set here for values at or beyond the usual limits of such assays; settings: source organism: Brucella melitensis bv. 1 str. 16M
[32] = target: HLA-A*68:02; assay: as above; settings: source organism: Brucella melitensis bv. 1 str. 16M
[33] = target: HLA-A*23:01; assay: as above; settings: source organism: Brucella melitensis bv. 1 str. 16M
[34] = target: HLA-A*02:11; assay: as above; settings: source organism: Brucella melitensis bv. 1 str. 16M
[35] = target: HLA-A*02:03; assay: as above; settings: source organism: Brucella melitensis bv. 1 str. 16M
[36] = source organism: Vibrio vulnificus YJ016
[37] = source organism: Brucella melitensis bv. 1 str. 16M

Sequence: SVFELSNFA
- Kd [1, 36]: ≥ 20 µM
- Kd [2, 36]: ≥ 20 µM
- Kd [3, 36]: 0.679 µM
- Kd [4, 36]: ≥ 20 µM
- Kd [5, 36]: 0.008 µM
- Kd [6, 36]: ≥ 20 µM
- Kd [7, 36]: ≥ 20 µM
- Kd [8, 36]: ≥ 20 µM
- Kd [9, 36]: ≥ 20 µM
- Kd [10, 36]: ≥ 20 µM
- Kd [11, 36]: ≥ 20 µM
- Kd [12]: 0.002 µM
- Kd [13, 36]: ≥ 20 µM
- Kd [14, 36]: ≥ 20 µM
- Kd [15, 36]: ≥ 20 µM
- Kd [16, 36]: ≥ 20 µM
- Kd [17, 36]: ≥ 5 µM
- Kd [18, 36]: ≥ 5 µM
- Kd [19, 36]: ≥ 5 µM
- Kd [20, 36]: ≥ 5 µM
- Kd [21]: ≥ 5 µM
- Kd [22, 36]: ≥ 5 µM
- Kd [23, 36]: ≥ 5 µM
- Kd [24]: ≥ 5 µM
- Kd [25]: ≥ 5 µM
- Kd [26, 36]: ≥ 5 µM
- Kd [27, 36]: ≥ 5 µM
- Kd [28, 36]: ≥ 5 µM
- Kd [29, 36]: ≥ 5 µM
- Kd [30, 36]: ≥ 5 µM

Sequence: TTRAVNMEV
- Kd [1, 37]: ≥ 20 µM
- Kd [2, 37]: ≥ 20 µM
- Kd [3, 37]: ≥ 20 µM
- Kd [31]: ≥ 20 µM
- Kd [4, 37]: ≥ 20 µM
- Kd [5, 37]: ≥ 20 µM
- Kd [32]: ≤ 0.001 µM
- Kd [6, 37]: ≥ 20 µM
- Kd [7, 37]: ≥ 20 µM
- Kd [8, 37]: ≥ 20 µM
- Kd [9, 37]: ≥ 20 µM
- Kd [10, 37]: ≥ 20 µM
- Kd [33]: ≥ 20 µM
- Kd [34]: ≥ 20 µM
- Kd [35]: ≥ 20 µM
- Kd [11, 37]: ≥ 20 µM
- Kd [13, 37]: ≥ 20 µM
- Kd [14, 37]: ≥ 20 µM
- Kd [15, 37]: ≥ 20 µM
- Kd [16, 37]: ≥ 20 µM
- Kd [17, 37]: ≥ 5 µM
- Kd [18, 37]: ≥ 5 µM
- Kd [19, 37]: ≥ 5 µM
- Kd [20, 37]: ≥ 5 µM
- Kd [22, 37]: ≥ 5 µM
- Kd [23, 37]: ≥ 5 µM
- Kd [26, 37]: ≥ 5 µM
- Kd [27, 37]: ≥ 5 µM
- Kd [28, 37]: ≥ 5 µM
- Kd [29, 37]: ≥ 5 µM
- Kd [30, 37]: ≥ 5 µM
